Measurements from patent US20240067729A1 (PALLEON PHARMACEUTICALS, published 2024).

Key:
[1] = target: T1, human PD-L1, his tagged (hPD-L1-his) (human, UniProt Q9NZQ7 19-238, limits assumed); experiment: BLI (ForteBio Octet), hPD-L1-his
T1 construct: also called huPD-L1-His; recombinant human PD-L1; not shown: his tag
Protocol: (§1) Characterization of chimeric anti-PD-L1 antibodies. ForteBio octet binding of purified chimeric antibodies and recombinant hPD-L1-his and cPD-L1-his was measured. Chimeric human antibodies were captured on AHC (Anti-human IgG-Capture) Biosensor, hPD-L1-his or cPD-L1-his analytes were titrated from 100 nM in a 2× series dilution. The buffer reference was subtracted from the signal and aligned to the baseline. KD, Kon and Koff values were generated using 1:1 fitting model as described above.
Selected h769 antibodies were tested in the blocking ELISA as described in Example 3 herein. […] Selected h769 humanized PD-L1 antibodies were characterized following removal of the deamidation motif in CDR-L3. FIG. 25 depicts the ForteBio octet binding of purified humanized antibodies and recombinant hPD-L1-his was measured.

[2] = target: T1, human PD-L1, his tagged (hPD-L1-his); experiment: BLI (ForteBio Octet), recombinant human PD-L1
[3] = target: T2, human PD-L1 expressed on cells (HCC827, NCI-H292, CHO-PD-L1, engineered CHO-K1) (human, UniProt Q9NZQ7 19-290); experiment: cell-based or functional assay
[4] = target: T1, human PD-L1, his tagged (hPD-L1-his); experiment: BLI (ForteBio Octet), human PD-L1
[5] = target: T3, cynomolgus PD-L1, his tagged (cPD-L1-his) (cynomolgus (Macaca fascicularis), UniProt G7PSE7 19-238); experiment: BLI (ForteBio Octet), cynomolgus PD-L1
T3 construct: also called cyPD-L1-His; Cyno PD-L1

[6] = target: human PD-L1 (hPD-L1) coated on ELISA wells, Example 7 (human, UniProt Q9NZQ7 19-238, limits assumed); experiment: blocking ELISA: titrated + biotinylated hPD-1-Fc 1 ug/mL on coated hPD-L1
Source text: The plate was developed with TMB and Stop buffer and the absorbance at 450 nm was read using a SpectraMax plate reader.

[7] = target: T2, human PD-L1 expressed on cells (HCC827, …); experiment: flow cytometry on HCC827 cells, apparent Kd; calculated using data points up to 3.7 nM
Protocol: (§2) The ability of PD-L1 antibody sialidase conjugates to bind PD-L1 on HCC827 and NCI-H292 cells was examined next. […] After washing with staining buffer, cells were incubated with AF647 Goat anti-human IgG(H+L) in staining buffer at 4° C. for 30 min. After 2× wash with staining buffer, cells were fixed and run on FACSCelesta.

[8] = target: T2, human PD-L1 expressed on cells (HCC827, …); experiment: flow cytometry on NCI-H292 cells, apparent Kd; calculated using data points up to 3.7 nM
Protocol: as §2

[9] = target: T2, human PD-L1 expressed on cells (HCC827, …); experiment: cell-based or functional assay; remark: listed apart in the source
[10] = target: T3, cynomolgus PD-L1, his tagged …; experiment: BLI (ForteBio Octet), cPD-L1-his
Protocol: as §1, with “above. […]” for “above.”

[11] = target: T1, human PD-L1, his tagged (hPD-L1-his); experiment: BLI (ForteBio Octet), hPD-L1-his; remark: listed apart in the source
Protocol: as §1, with “above. […]” for “above.”

[12] = target: T2, human PD-L1 expressed on cells (HCC827, …); experiment: flow cytometry on HCC827 cells, apparent Kd
Protocol: (§3) FIG. 14 is a graph showing binding of chimeric PD-L1 antibodies to HCC827 (FIG. 14A) and NCI-H292 (FIG. 14B) lung epithelial cell lines. Binding was measured using a FACS analysis with a […] secondary antibody. MFI=mean fluorescence intensity.
(§4) Purified chimeric antibodies were evaluated for their ability to bind PD-L1 expressed on two human cancer cell lines. HCC827 and NCI-292 cells were incubated with titrated antibodies for 30 min at 4° C. Cells were washed and incubated with AF647-labeled goat anti-human IgG(H+L) for 30 min at 4° C. Cells were washed, fixed and analyzed on FACSCelesta.

[13] = target: T2, human PD-L1 expressed on cells (HCC827, …); experiment: flow cytometry on NCI-H292 cells, apparent Kd
Protocol: as §3, §4

[14] = target: T3, cynomolgus PD-L1, his tagged …; experiment: BLI (ForteBio Octet), IgG on AHC sensor, cPD-L1-his analyte, 1:1 fit
Protocol: as §1

[15] = target: T1, human PD-L1, his tagged (hPD-L1-his); experiment: BLI (ForteBio Octet), IgG on AHC sensor, hPD-L1-his analyte, 1:1 fit
Protocol: as §1

[16] = target: T4, human PD-L1 Fc fusion (hPD-L1-Fc) (human, UniProt Q9NZQ7 19-238, limits assumed); experiment: blocking ELISA: antibody titrated + biotin-hPD-1-Fc on coated hPD-L1-Fc
T4 construct: not shown: Fc part
Source text: The plate was developed with TMB and Stop buffer, the absorbance at 450 nm was read using SpectraMax plate reader. The A450 absorbance was normalized to the control that without antibody for the percentage values. The curve and IC₅₀ were generated using GraphPad Prism software.
Protein A purified chimeric antibodies were examined by size exclusion chromatography and quantified with a UV-Vis spectrophotometer (NanoDrop; mAU=milli absorbance units).

[17] = target: T2, human PD-L1 expressed on cells (HCC827, …); experiment: flow cytometry MFI, CHO-PD-L1 cells (10 nM) against parental CHO cells (100 nM)
Protocol: CHO cells were incubated with 100 nM antibodies and CHO-PD-L1 cells (from Bioassay) with 10 nM antibodies for 30 min at 4° C. Cells were washed and incubated with goat anti-human IgG(H+L) for 30 in at 4° C. The washed cells were fixed and run on FACSCelesta.

[18] = target: T3, cynomolgus PD-L1, his tagged …; experiment: BLI (ForteBio Octet), cPD-L1-his analyte, 1:1 fit
Protocol: as §1

T1 sequence (Q9NZQ7 19-238 limits assumed): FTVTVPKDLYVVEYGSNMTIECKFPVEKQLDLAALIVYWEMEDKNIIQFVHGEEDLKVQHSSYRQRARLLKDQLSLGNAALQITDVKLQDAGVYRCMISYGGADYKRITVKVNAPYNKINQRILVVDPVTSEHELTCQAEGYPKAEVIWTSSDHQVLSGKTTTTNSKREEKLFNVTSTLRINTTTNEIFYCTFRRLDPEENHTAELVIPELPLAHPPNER
T3 sequence (G7PSE7 entry or part of it limits assumed, form in doubt): as the sequence (Q9NZQ7 19-238 limits assumed) above, with A33T, A34S, S62N, R68Q, Q82R, F173L, T185A, T192I, H215L counted along it
T2 sequence (Q9NZQ7 19-290, change not shown): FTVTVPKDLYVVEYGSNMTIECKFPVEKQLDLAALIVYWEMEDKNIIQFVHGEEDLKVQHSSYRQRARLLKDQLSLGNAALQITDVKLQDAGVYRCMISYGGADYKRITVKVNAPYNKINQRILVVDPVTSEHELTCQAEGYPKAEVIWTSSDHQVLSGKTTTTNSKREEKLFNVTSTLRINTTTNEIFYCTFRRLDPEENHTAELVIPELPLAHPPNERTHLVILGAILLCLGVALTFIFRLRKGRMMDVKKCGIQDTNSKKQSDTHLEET
T4 sequence (Q9NZQ7 19-238 limits assumed): as the sequence (Q9NZQ7 19-238 limits assumed) above
human PD-L1 (hPD-L1) coated on ELISA wells, Example 7, sequence (Q9NZQ7 19-238 limits assumed): as above

B1: h769-N93T (h769.T), humanized 769-hIgG1 variant (antibody, V domains shown)
VH: EVQLVQSGAEVKKPGATVKISCKVSGFNIKDTYMHWVQQAPGKGLEWMGLIDPANDNTIYAEKFQGRVTITADTSTDTAYMELSSLRSEDTAVYYCAREGYGGSYGEGYWGQGTLVTVSS
VL: EIVMTQSPPTLSLSPGERVTLSCRASQSVSNDLSWYQQKPGQAPRLLIYYASIRFTGIPARFSGSGSGTDFTLTISSLQPEDFAVYYCQQDYTSPWTFGQGTKVEIK
notes: Human IgG1
In the case of B1, the Kd [1] is reported as 1.82 nM, the koff [1] is reported as 0.000597 s⁻¹ and the kon [1] is reported as 328000 M⁻¹ s⁻¹. For the same binder, the Kd [2] was 1.76 nM, the koff [2] was 0.000629 s⁻¹ and the kon [2] was 357000 M⁻¹ s⁻¹.

B2: h769.T-1A (antibody, V domains shown)
VH: B1 VH
VL: B1 VL
notes: bivalent
For B2, the “EC50 (NFAT-luciferase fold induction)” value [3] was 0.56 nM, the Kd [4] was 2.13 nM and the koff [4] was 0.000728 s⁻¹. For the same binder, the kon [4] was 346000 M⁻¹ s⁻¹, the Kd [5] was 1.53 nM and the koff [5] was 0.000443 s⁻¹. The kon [5] was 297000 M⁻¹ s⁻¹, the IC50 [6] was 1.44 nM and the Kd [7] was 0.125 nM. For the same binder, the Kd [8] was 0.0973 nM.

B3: 769-hIgG1 (chimeric PAL769) (antibody, V domains shown)
VH: EVQLQESGAELVKPGASVTLSCTASGFNIKDTYMHWVKQRPEQGLEWIGRIDPANDNTKYDPKFQDKATITADTSSDTAYLRLSSLTSEDTAVYYCAREGYGGSYGEGYWGQGTTLTVSS
VL: SIVMTQTPKFLLVSAGDRVTITCKASQSVSNDVIWYQQKPGQSPKLLIYYASIRFTGVPDRFAGSGYGTDFTFTINTVQAEDLAVYFCQQDYNSPWTFGGGTKLEIK
With B3 the “IC50, nM (Function)” value [9] was 0.5 nM, the Kd [10] was 2.92 nM and the koff [10] was 0.000685 s⁻¹. It also gave a kon [10] of 238000 M⁻¹ s⁻¹, a Kd [11] of 2.59 nM and a koff [11] of 0.000967 s⁻¹. It also gave a kon [11] of 373000 M⁻¹ s⁻¹, a Kd [12] of 0.17 nM and a Kd [13] of 0.12 nM. It also gave a Kd [14] of 0.55 nM, a Kd [15] of 0.64 nM and an IC50 [16] of 1.6 nM. For the same binder, the “Bind PD-L1-CHO/CHO” value [17] was greater than 100 x.

B4: Avelumab (antibody, human IgG1, lambda, V domains shown)
VH: EVQLLESGGGLVQPGGSLRLSCAASGFTFSSYIMMWVRQAPGKGLEWVSSIYPSGGITFYADTVKGRFTISRDNSKNTLYLQMNSLRAEDTAVYYCARIKLGTVTTVDYWGQGTLVTVSS
VL: QSALTQPASVSGSPGQSITISCTGTSSDVGGYNYVSWYQQHPGKAPKLMIYDVSNRPSGVSNRFSGSKSGNTASLTISGLQAEDEADYYCSSYTSSSTRVFGTGTKVTVLG
With B4 the Kd [18] was 1.7 nM and the Kd [14] was 0.994 nM.
